Reference: patent US12209135B2, “Anti-CD45 antibodies and conjugates thereof” (priority 2019, dated 2025)

Legend:
[1] = Two-week thermal / pH stress stability by HIC and peptide mapping; format: physicochemical; conditions: 4° C., 25° C., 40° C. for 15 days; high pH treatment
Procedure: A two-week stability assay was performed by incubating Ab3 and Ab4 at 4° C., 25° C., and 40° C. for 15 days, after which the antibodies were analyzed by […] (HIC). Briefly, 25 micrograms of the indicated antibody were injected onto a Tosoh TSKgel Phenyl-5PW 7.5 mm ID×7.5 cm 10-micron column (Catalog #07573) on a Waters ARC HPLC/UPLC system. […] This hydrophilic pre-peak was indicative of a potential site of post-translational modification (e.g., oxidation or deamidation). Peptide mapping was subsequently performed to identify which amino acids were modified in each antibody upon exposure to stress (high pH, low pH, and oxidative stress). The peptide mapping analysis identified a potential site of deamidation at an asparagine in CDR-L1 (N30 position) in response to high pH conditions (e.g., pH 8 or greater).
Accordingly, variants of Ab3 and Ab4 were generated in which the asparagine in CDR-L1 (e.g., at position 30B) was substituted with a serine. The resulting antibodies were named Ab7 and Ab5 respectively.

[2] = target: T1, rhesus CD45 ectodomain (Macaca mulatta, UniProt A0A1D5R142); test: Biolayer interferometry (BLI, Octet) binding of immobilized IgG to purified CD45 ectodomain; conditions: Table 2, Rhesus CD45
T1 construct: purified human, rhesus or cynomolgus CD45 ectodomain
T1 sequence (A0A1D5R142 26-581): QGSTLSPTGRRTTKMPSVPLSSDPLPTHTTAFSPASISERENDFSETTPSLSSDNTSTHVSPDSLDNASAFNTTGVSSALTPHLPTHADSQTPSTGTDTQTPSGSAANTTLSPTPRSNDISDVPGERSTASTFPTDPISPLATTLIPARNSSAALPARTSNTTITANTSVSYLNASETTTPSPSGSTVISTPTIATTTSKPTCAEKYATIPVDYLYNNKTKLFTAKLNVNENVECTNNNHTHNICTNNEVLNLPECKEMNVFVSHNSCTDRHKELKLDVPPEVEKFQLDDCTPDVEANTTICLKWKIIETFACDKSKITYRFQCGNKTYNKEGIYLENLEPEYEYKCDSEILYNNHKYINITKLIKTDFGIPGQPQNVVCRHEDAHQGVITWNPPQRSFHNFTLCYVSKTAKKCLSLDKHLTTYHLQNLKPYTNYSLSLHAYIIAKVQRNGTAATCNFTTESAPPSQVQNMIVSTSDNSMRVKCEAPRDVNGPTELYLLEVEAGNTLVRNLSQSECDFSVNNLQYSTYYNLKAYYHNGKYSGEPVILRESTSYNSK
Procedure: (§1) Antibody binding studies were performed at 25° C. in 1×PBS supplemented with 0.1% w/v bovine serum albumin with a Pall ForteBio Octet Red96 using biolayer interferometry (BLI).
The apparent monovalent affinity (KD), apparent association rate (KON), and apparent dissociation rate (KOFF) were determined by local full fitting with a 1:1 binding model as calculated by ForteBio data analysis software version 10 of each IgG to purified human, cynomolgus or rhesus CD45 ectodomain. […] Binding was confirmed using […]

[3] = target: T2, human CD45 ectodomain (Homo sapiens, UniProt P08575); test: as above; conditions: Table 2, Human CD45
T2 construct: purified human, rhesus or cynomolgus CD45 ectodomain
T2 sequence (P08575 26-577): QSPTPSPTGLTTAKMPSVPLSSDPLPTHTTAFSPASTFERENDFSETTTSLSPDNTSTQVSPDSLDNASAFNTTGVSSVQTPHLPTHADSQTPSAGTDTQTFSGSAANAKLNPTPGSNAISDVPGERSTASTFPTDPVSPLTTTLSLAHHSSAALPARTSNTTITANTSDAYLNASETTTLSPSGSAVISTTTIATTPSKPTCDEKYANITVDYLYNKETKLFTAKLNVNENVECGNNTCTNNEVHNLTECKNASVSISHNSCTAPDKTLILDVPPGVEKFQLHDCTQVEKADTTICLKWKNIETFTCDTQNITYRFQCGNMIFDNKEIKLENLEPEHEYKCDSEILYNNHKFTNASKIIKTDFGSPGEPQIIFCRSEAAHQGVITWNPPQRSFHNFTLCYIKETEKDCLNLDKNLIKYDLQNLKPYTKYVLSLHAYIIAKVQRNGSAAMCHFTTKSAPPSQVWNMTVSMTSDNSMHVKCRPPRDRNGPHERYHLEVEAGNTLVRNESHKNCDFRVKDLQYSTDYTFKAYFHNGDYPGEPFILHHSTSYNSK
Procedure: as §1
(§2) The apparent monovalent affinity (KD), apparent association rate (KON), and apparent dissociation rate (KOFF) were determined by local full fitting with a 1:1 binding model as calculated by ForteBio data analysis software version 10 of each IgG to purified human, cynomolgus or rhesus CD45 ectodomain. […] Binding was confirmed using
Briefly, antibody binding studies were performed at 25° C. in 1×PBS supplemented with 0.1% w/v bovine serum albumin with a PALL FORTEBIO OCTET RED96 using biolayer interferometry (BLI). Each purified antibody was immobilized onto anti-human Fc biosensors (AHQ; PALL FORTEBIO 18-5001) and incubated with 100 nM of purified human or 300 nM of cynomolgus CD45 ectodomain.
(§3) The apparent monovalent affinity (KD), apparent association rate (KON), and apparent dissociation rate (KDIS or KOFF) were determined by local full fitting with a 1:1 binding model as calculated by FORTEBIO data analysis software version 10. […] Each of the selected humanized antibodies AbA, AbB, and AbC was able to cross react with human and cynomolgus CD45.

[4] = test system: cynomolgus CD45 ectodomain; test: as above; conditions: Table 2, Cynomolgus CD45
cynomolgus CD45 ectodomain, sequence (as listed by the source): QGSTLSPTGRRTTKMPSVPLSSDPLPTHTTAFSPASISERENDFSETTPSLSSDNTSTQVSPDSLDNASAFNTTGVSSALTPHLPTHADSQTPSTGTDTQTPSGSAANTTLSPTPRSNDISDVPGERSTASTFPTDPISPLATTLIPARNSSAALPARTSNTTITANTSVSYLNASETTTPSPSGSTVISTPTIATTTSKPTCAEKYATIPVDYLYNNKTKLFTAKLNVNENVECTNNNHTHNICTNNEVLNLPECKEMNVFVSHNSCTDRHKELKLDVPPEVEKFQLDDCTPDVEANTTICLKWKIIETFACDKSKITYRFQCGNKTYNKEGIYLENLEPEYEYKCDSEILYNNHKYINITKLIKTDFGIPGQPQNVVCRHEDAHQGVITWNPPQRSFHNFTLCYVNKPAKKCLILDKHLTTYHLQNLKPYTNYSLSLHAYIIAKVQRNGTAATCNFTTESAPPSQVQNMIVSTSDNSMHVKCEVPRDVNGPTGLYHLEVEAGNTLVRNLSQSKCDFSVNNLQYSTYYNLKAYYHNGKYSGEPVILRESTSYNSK
Procedure: as §1, §2
Briefly, antibody binding studies were performed at 25° C. in 1×PBS supplemented with 0.1% w/v bovine serum albumin with a PALL FORTEBIO OCTET RED96 using biolayer interferometry (BLI). […]
as §3

B1: Ab4: affinity matured human anti-CD45 IgG derived from Ab1; VH SEQ ID NO:31, VL SEQ ID NO:35 (antibody, V domains shown)
VH: EVQLVESGGGLVQPGGSLRLSCAASGFTFEAYSMNWVRQAPGKGLEWVSYISLSGATIHYADSVKGRFTISRDNAKNSLYLQMNSLRAEDTAVYYCARGGQYYYTSSDYGEVAFDIWGQGTMVTVSS
VL: DIVMTQSPLSLPVTPGEPASISCRSSQSLVSNGYNYLDWYLQKPGQSPQLLIYFGSSRASGVPDRFSGSGSGTDFTLKISRVEAEDVGVYYCMQRRRTPWSFGGGTKVEIK
[1]
  HIC hydrophilic pre-peak (deamidated species): hydrophilic pre-peak that increased as a function of thermal stress
[2]
  Kdis: 0.000102 s⁻¹
  Kon: 118000 M⁻¹ s⁻¹
[2]; 50 nM antigen (Ab1: 300 nM)
  Kd: 0.867 nM
[3]
  Kdis: 3.28e-06 s⁻¹
  Kon: 236000 M⁻¹ s⁻¹
[4]
  Kdis: 7.89e-05 s⁻¹
  Kon: 110000 M⁻¹ s⁻¹
[4]; 50 nM antigen (Ab1: 300 nM)
  Kd: 0.721 nM
